The results in this text go back to PMC9779362, “The J Domain of Sacsin Disrupts Intermediate Filament Assembly” (International Journal of Molecular Sciences, 2022).

The series deals with the molecule itself. Kind of series: negative-stain transmission electron microscopy of in vitro assembly; purified NFL (0.24 µg/µL) dialysed stepwise out of urea into assembly buffer, overnight at 4 °C; 2% uranyl acetate.

B1: recombinant human NFL (neurofilament light chain) (natural protein, UniProt P07196 1-543, looked up)
chain: MSSFSYEPYYSTSYKRRYVETPRVHISSVRSGYSTARSAYSSYSAPVSSSLSVRRSYSSSSGSLMPSLENLDLSQVAAISNDLKSIRTQEKAQLQDLNDRFASFIERVHELEQQNKVLEAELLVLRQKHSEPSRFRALYEQEIRDLRLAAEDATNEKQALQGEREGLEETLRNLQARYEEEVLSREDAEGRLMEARKGADEAALARAELEKRIDSLMDEISFLKKVHEEEIAELQAQIQYAQISVEMDVTKPDLSAALKDIRAQYEKLAAKNMQNAEEWFKSRFTVLTESAAKNTDAVRAAKDEVSESRRLLKAKTLEIEACRGMNEALEKQLQELEDKQNADISAMQDTINKLENELRTTKSEMARYLKEYQDLLNVKMALDIEIAAYRKLLEGEETRLSFTSVGSITSGYSQSSQVFGRSAYGGLQTSSYLMSTRSFPSYYTSHVQEEQIEVEETIEAAKAEEAKDEPPSEGEAEEEEKDKEEAEEEEAAEEEEAAKEESEEAKEEEEGGEGEEGEETKEAEEEEKKVEGAGEEQAAKKKD
notes: neurofilament light polypeptide (NFL), human, cloned into pET23b (gift of Dr. Walter Mushynski); Used as assembled filaments (TEM, sedimentation) and as the soluble fraction after centrifugation (pull-down); also called soluble recombinant NFL; source: bacteria (pET23b), inclusion bodies solubilised in 8 M urea, purified on hydroxyapatite, dialysed into assembly buffer
For the protein B1, the binding result was “binds”.
